From paper PMC3030355
Read-outs that look alike come from different tables or passages of the source.

Tests used:
Assay in all cases: EMSA
[1] = target: T1, RPA-wt (RPA70/RPA32/RPA14 heterotrimer) (human, UniProt P27694;P15927;P35244 1-616;1-270;1-121)
[2] = target: T2, WRN-E84A (exonuclease-deficient) (human, UniProt Q14191 1-1432, E84A)
[3] = target: T2, WRN-E84A (exonuclease-deficient); remark: listed apart in the source
[4] = target: T1, RPA-wt (RPA70/RPA32/RPA14 heterotrimer); remark: listed apart in the source
[5] = target: T1, RPA-wt (RPA70/RPA32/RPA14 heterotrimer); remark: listed apart in the source

T1 sequence (P27694 whole entry, chain 1 of 3): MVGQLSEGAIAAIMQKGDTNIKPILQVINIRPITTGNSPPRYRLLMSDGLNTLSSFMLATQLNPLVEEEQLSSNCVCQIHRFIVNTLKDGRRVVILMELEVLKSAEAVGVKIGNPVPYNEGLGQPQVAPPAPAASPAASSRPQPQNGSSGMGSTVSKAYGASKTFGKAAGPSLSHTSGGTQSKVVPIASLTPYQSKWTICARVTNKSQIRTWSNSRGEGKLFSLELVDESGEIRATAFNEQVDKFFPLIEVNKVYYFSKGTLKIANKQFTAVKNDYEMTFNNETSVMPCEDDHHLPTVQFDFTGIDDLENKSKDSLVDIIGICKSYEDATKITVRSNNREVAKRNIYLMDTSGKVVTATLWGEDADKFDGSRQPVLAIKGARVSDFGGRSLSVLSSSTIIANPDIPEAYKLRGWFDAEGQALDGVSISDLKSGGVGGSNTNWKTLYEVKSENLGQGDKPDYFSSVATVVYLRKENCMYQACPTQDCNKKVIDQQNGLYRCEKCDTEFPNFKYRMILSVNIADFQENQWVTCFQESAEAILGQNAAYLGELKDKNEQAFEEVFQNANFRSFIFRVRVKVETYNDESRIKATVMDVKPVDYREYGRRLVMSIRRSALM
T1 sequence (P15927 whole entry, chain 2 of 3): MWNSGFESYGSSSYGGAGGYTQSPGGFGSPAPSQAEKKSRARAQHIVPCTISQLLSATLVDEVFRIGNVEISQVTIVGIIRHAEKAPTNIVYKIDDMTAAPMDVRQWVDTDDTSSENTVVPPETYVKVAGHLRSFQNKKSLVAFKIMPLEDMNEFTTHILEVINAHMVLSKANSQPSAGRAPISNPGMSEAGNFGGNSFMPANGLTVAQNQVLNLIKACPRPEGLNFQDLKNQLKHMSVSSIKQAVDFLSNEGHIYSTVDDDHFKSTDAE
T1 sequence (P35244 whole entry, chain 3 of 3): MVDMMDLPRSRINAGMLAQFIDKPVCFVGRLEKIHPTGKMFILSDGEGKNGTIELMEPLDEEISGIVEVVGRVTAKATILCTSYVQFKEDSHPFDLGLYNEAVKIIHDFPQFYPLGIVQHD
T2 sequence (Q14191 whole entry E84A): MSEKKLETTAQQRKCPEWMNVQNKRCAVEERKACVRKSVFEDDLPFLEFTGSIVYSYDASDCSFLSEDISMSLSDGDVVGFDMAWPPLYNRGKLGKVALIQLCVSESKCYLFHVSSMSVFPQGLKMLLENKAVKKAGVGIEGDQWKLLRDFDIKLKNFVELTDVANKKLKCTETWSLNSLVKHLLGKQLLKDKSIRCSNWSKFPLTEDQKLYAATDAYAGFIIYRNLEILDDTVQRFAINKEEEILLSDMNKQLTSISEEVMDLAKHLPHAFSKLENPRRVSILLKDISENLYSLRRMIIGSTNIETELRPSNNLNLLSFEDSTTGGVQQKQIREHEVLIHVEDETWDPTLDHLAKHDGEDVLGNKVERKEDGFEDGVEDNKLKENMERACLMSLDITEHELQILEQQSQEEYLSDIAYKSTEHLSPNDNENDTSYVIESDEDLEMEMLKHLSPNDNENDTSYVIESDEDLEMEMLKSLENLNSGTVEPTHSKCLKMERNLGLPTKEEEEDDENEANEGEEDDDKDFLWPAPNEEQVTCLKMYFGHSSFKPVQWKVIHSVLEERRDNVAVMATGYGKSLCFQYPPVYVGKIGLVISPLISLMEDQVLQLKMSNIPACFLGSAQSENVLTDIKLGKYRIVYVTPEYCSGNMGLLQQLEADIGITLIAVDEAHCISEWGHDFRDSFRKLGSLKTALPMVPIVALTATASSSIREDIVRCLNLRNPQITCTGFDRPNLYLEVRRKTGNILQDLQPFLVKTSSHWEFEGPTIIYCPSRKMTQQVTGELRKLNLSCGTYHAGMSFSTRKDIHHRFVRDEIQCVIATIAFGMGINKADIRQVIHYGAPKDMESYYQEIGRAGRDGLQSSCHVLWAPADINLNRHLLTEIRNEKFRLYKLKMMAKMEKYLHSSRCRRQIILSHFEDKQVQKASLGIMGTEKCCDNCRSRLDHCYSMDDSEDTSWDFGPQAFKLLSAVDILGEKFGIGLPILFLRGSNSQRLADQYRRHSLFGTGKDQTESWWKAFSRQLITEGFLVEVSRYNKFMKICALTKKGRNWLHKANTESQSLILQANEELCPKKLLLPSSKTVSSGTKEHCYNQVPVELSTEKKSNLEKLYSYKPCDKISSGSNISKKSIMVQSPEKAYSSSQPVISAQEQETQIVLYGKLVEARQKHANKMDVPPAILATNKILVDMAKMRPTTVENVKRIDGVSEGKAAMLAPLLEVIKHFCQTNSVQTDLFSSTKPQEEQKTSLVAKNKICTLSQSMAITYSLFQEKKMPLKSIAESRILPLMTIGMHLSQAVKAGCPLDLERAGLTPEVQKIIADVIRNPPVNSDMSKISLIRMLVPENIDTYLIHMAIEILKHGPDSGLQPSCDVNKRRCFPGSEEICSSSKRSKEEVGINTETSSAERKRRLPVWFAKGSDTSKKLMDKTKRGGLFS

B1: model replication fork, 32-nt leading gap (mixed)
DNA 1: CGTGACTTGATGTTAACCCTAACCCTAAGATATCGCGTTAAGTGAGTGTGAGGATACATGTAGGCAATTGCCACGTGTCTATCAGCTGAAGTTGTTCGCGACGTGCGATCGTCGCTGCGACG
DNA 2: CGTCGCAGCGACGATCGCACGTCGCGAACAACTTCAGCTGATAGACACGTGGCAATTGCCTACATGTATCCTCACACTCTGAATACGCGATATCTTAGGGTTAGGGTTAACATCAAGTCACG
DNA 3: CGTCGCAGCGACGATCGCACGTCGCGAACAACTTCAGCTGATAGACACGTGG
DNA 4: TCAGAGTGTGAGGATACATGTAGGCAATTGCCACGTGTCTATCAGCTGAAGTTGTTCGCGACGTGCGATCGTCGCTGCGACG
- binding result [1]: binds
- binding result [2]: binds

B2: gapped duplex, 32-nt gap (mixed)
DNA 1: CGTGACTTGATGTTAACCCTAACCCTAAGATATCGCGTTAAGTGAGTGTGAGGATACATGTAGGCAATTGCCACGTGTCTATCAGCTGAAGTTGTTCGCGACGTGCGATCGTCGCTGCGACG
DNA 2: CGTCGCAGCGACGATCGCACGTCGCGAACAACTTCAGCTGATAGACACGTGG
DNA 3: ACGCGATATCTTAGGGTTAGGGTTAACATCAAGTCACG
- binding result [3]: binds
- binding result [4]: binds

Binder: TAAGTGAGTGTGAGGATACATGTAGGCAATTG (ssDNA) [ss32]
- binding result [5]: binds
